Data published in patent US20240181006A1, “POLYPEPTIDES BINDING ADAMTS5, MMP13 AND AGGRECAN” (Merck Patent GmbH, priority 2017, published 2024).

Key:
Assay in all cases: cell-based or functional assay
[1] = target: dog MMP13 (activated) (dog)
[2] = target: human MMP13 (activated) (human) (UniProt P45452)
[3] = target: cynomolgus MMP13 (activated) (cynomolgus)
[4] = target: rat MMP13 (activated) (rat) (UniProt P23097)
[5] = target: bovine MMP13 (activated) (bovine) (UniProt O77656)

IC50, dog fluorogenic peptide assay [1]: 0.9 nM
IC50, human collagenolytic assay [2]: 0.4 nM
IC50, human fluorogenic collagen assay [2]: 2.4 nM
IC50, human fluorogenic peptide assay [2]: 0.5 nM
IC50, cyno fluorogenic peptide assay [3]: 0.4 nM
IC50, rat fluorogenic peptide assay [4]: 0.4 nM
IC50, bovine fluorogenic peptide assay [5]: 1.1 nM
Substance: TIMP-2 (from UniProt P16035 27-220)
